From patent US20220073631A1

Key:
[1] = target: human IL-4Rα (Shanghai Novoprotein Technology Co., Ltd) (human) (UniProt P24394); test: SPR, Biacore T200, antibody captured on protein A, antigen as analyte, 25 C, 1:1 model
[2] = target: hIL-4Rα-ECD (wild-type hIL-4Rα extracellular domain with C-terminus his-tag) (human) (UniProt P24394); test: SPR, Biacore T200, by the methods of Example 2; mean of three experiments

B1: Dupilumab (antibody, INN chains, looked up, V domains shown)
VH: EVQLVESGGGLEQPGGSLRLSCAGSGFTFRDYAMTWVRQAPGKGLEWVSSISGSGGNTYYADSVKGRFTISRDNSKNTLYLQMNSLRAEDTAVYYCAKDRLSITIRPRYYGLDVWGQGTTVTVSS
VL: DIVMTQSPLSLPVTPGEPASISCRSSQSLLYSIGYNYLDWYLQKSGQSPQLLIYLGSNRASGVPDRFSGSGSGTDFTLKISRVEAEDVGFYYCMQALQTPYTFGQGTKLEIKR
B1 was tested, and the Kd [1] was 0.136 nM, the koff [1] was 0.00011 s⁻¹ and the kon [1] was 808000 M⁻¹ s⁻¹. The Kd [2] was 0.0588 nM, the koff [2] was 4.29e-05 s⁻¹ and the kon [2] was 707000 M⁻¹ s⁻¹.
